Data reported in patent US20170305985A1 (Stanford University, published 2017).

Molecular target: Met receptor on Madine-Darby canine kidney (MDCK) cells (canine (MDCK cells), UniProt Q75ZY9 25-1382)
Test: cell-based or functional assay

inhibition of HGF-induced activation of Met, MDCK cells: ~5 fold lower concentration
B1: recombinant soluble Aras-4 (ligand)
chain: YAEGQGKRRNTIHEFKKSAKTTLIKIDPALRIKTEKANTADQCANRCTRSKGLPFTCKAFVFDKARKRCLWFPFNSMSSGVKKEFGHEFDLYENKAYIRDCIIGRGRNYRGTVSITKSGIKCQPWSAMIPHEHSFLPSSYRGEDLRENYCRNPRGEEGGPWCYTSDPEVRYEVCDIPQCSEVE
